Earlier results, collected in paper PMC10302803.

Biological target: VEGF-P3CYC
Sequence (main, as listed by the source): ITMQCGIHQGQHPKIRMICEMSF

VEGFR2 (from UniProt P35968)
Kd: 11 nM
